Reference: the supplement of paper PMC11316812
± gives the standard deviation of the averaged measurements.

Assays:
MCF7 = experiment: percentage of EdU-negative (G0-arrested) nuclei per well, 72 h; higher = more G0 arrest; conditions: reference: sequence is the full UniProt precursor, the tested protein was the secreted form or ectodomain
hTERT-HMEC = experiment: as above; conditions: reference: sequence is the full UniProt precursor, the tested protein was the secreted form or ectodomain
[1] = protein concentration 0.03125 µM
[2] = protein concentration 0.3125 µM
[3] = protein concentration 0.0225 µM
[4] = protein concentration 0.0357143 µM
[5] = protein concentration 0.357143 µM
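Further: secreted proteins added to cultured cells, EdU pulse at the end, nuclei found by Hoechst imaging, EdU status from nuclear versus surrounding ring intensity ratio, PBS as neutral control.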

MKVVPSLLLSVLLAQVWLVPGLAPSPQSPETPAPQNQTSRVVQAPKEEEEDEQEASEEKASEEEKAWLMASRQQLAKETSNFGFSLLRKISMRHDGNMVFSPFGMSLAMTGLMLGATGPTETQIKRGLHLQALKPTKPGLLPSLFKGLRETLSRNLELGLTQGSFAFIHKDFDVKETFFNLSKRYFDTECVPMNFRNASQAKRLMNHYINKETRGKIPKLFDEINPETKLILVDYILFKGKWLTPFDPVFTEVDTFHLDKYKTIKVPMMYGAGKFASTFDKNFRCHVLKLPYQGNATMLVVLMEKMGDHLALEDYLTTDLVETWLRNMKTRNMEVFFPKFKLDQKYEMHELLRQMGIRRIFSPFADLSELSATGRNLQVSRVLQRTVIEVDERGTEAVAGILSEITAYSMPPVIKVDRPFHFMIYEETSGMLLFLGRVVNPTLL [Q9UK55]
percentage of EdU-negative (MCF7; [1]): 24.6 ± 0.79% | percentage of EdU-negative (MCF7; [2]): 29.5 ± 0.31% | percentage of EdU-negative (hTERT-HMEC; [1]): 4.46 ± 0.39% | percentage of EdU-negative (hTERT-HMEC; [2]): 11.5 ± 0.79%

MRLLQLLFRASPATLLLVLCLQLGANKAQDNTRKIIIKNFDIPKSVRPNDEVTAVLAVQTELKECMVVKTYLISSIPLQGAFNYKYTACLCDDNPKTFYWDFYTNRTVQIAAVVDVIRELGICPDDAAVIPIKNNRFYTIEILKVE
percentage of EdU-negative (MCF7; [3]): 25.1 ± 2.6% | percentage of EdU-negative (MCF7; protein concentration 0.225 µM): 25.5 ± 0.54% | percentage of EdU-negative (hTERT-HMEC; [3]): 4.779 ± 0.024% | percentage of EdU-negative (hTERT-HMEC; protein concentration 0.225 µM): 5.95 ± 1.6%

MLHLLALFLHCLPLASGDYDICKSWVTTDEGPTWEFYACQPKVMRLKDYVKVKVEPSGITCGDPPERFCSHENPYLCSNECDASNPDLAHPPRLMFDKEEEGLATYWQSITWSRYPSPLEANITLSWNKTVELTDDVVMTFEYGRPTVMVLEKSLDNGRTWQPYQFYAEDCMEAFGMSARRARDMSSSSAHRVLCTEEYSRWAGSKKEKHVRFEVRDRFAIFAGPDLRNMDNLYTRLESAKGLKEFFTLTDLRMRLLRPALGGTYVQRENLYKYFYAISNIEVIGRCKCNLHANLCSMREGSLQCECEHNTTGPDCGKCKKNFRTRSWRAGSYLPLPHGSPNACATAGSFGNCECYGHSNRCSYIDFLNVVTCVSCKHNTRGQHCQHCRLGYYRNGSAELDDENVCIECNCNQIGSVHDRCNETGFCECREGAAGPKCDDCLPTHYWRQGCYPNVCDDDQLLCQNGGTCLQNQRCACPRGYTGVRCEQPRCDPADDDGGLDCDRAPGAAPRPATLLGCLLLLGLAARLGR [Q96CW9]
percentage of EdU-negative (MCF7; [3]): 28.5 ± 0.47% | percentage of EdU-negative (MCF7; protein concentration 0.225 µM): 28.61 ± 0.091% | percentage of EdU-negative (hTERT-HMEC; [3]): 5.1 ± 0.37% | percentage of EdU-negative (hTERT-HMEC; protein concentration 0.225 µM): 5.79 ± 0.16%

MDWSFFRVVAMLFIFLVVVEVNSEFRIQVRDYNTKNGTIKWHSIRRQKREWIKFAAACREGEDNSKRNPIAKIHSDCAANQQVTYRISGVGIDQPPYGIFVINQKTGEINITSIVDREVTPFFIIYCRALNSMGQDLERPLELRVRVLDINDNPPVFSMATFAGQIEENSNANTLVMILNATDADEPNNLNSKIAFKIIRQEPSDSPMFIINRNTGEIRTMNNFLDREQYGQYALAVRGSDRDGGADGMSAECECNIKILDVNDNIPYMEQSSYTIEIQENTLNSNLLEIRVIDLDEEFSANWMAVIFFISGNEGNWFEIEMNERTNVGILKVVKPLDYEAMQSLQLSIGVRNKAEFHHSIMSQYKLKASAISVTVLNVIEGPVFRPGSKTYVVTGNMGSNDKVGDFVATDLDTGRPSTTVRYVMGNNPADLLAVDSRTGKLTLKNKVTKEQYNMLGGKYQGTILSIDDNLQRTCTGTININIQSFGNDDRTNTEPNTKITTNTGRQESTSSTNYDTSTTSTDSSQVYSSEPGNGAKDLLSDNVHFGPAGIGLLIMGFLVLGLVPFLMICCDCGGAPRSAAGFEPVPECSDGAIHSWAVEGPQPEPRDITTVIPQIPPDNANIIECIDNSGVYTNEYGGREMQDLGGGERMTGFELTEGVKTSGMPEICQEYSGTLRRNSMRECREGGLNMNFMESYFCQKAYAYADEDEGRPSNDCLLIYDIEGVGSPAGSVGCCSFIGEDLDDSFLDTLGPKFKKLADISLGKESYPDLDPSWPPQSTEPVCLPQETEPVVSGHPPISPHFGTTTVISESTYPSGPGVLHPKPILDPLGYGNVTVTESYTTSDTLKPSVHVHDNRPASNVVVTERVVGPISGADLHGMLEMPDLRDGSNVIVTERVIAPSSSLPTSLTIHHPRESSNVVVTERVIQPTSGMIGSLSMHPELANAHNVIVTERVVSGAGVTGISGTTGISGGIGSSGLVGTSMGAGSGALSGAGISGGGIGLSSLGGTASIGHMRSSSDHHFNQTIGSASPSTARSRITKYSTVQYSK
percentage of EdU-negative (MCF7; protein concentration 0.014 µM): 25.17 ± 0.14% | percentage of EdU-negative (MCF7; protein concentration 0.14 µM): 28.1 ± 0.79% | percentage of EdU-negative (hTERT-HMEC; protein concentration 0.014 µM): 5.37 ± 1.1% | percentage of EdU-negative (hTERT-HMEC; protein concentration 0.14 µM): 5.1 ± 0.58%

MGPPPGAGVSCRGGCGFSRLLAWCFLLALSPQAPGSRGAEAVWTAYLNVSWRVPHTGVNRTVWELSEEGVYGQDSPLEPVAGVLVPPDGPGALNACNPHTNFTVPTVWGSTVQVSWLALIQRGGGCTFADKIHLAYERGASGAVIFNFPGTRNEVIPMSHPGAVDIVAIMIGNLKGTKILQSIQRGIQVTMVIEVGKKHGPWVNHYSIFFVSVSFFIITAATVGYFIFYSARRLRNARAQSRKQRQLKADAKKAIGRLQLRTLKQGDKEIGPDGDSCAVCIELYKPNDLVRILTCNHIFHKTCVDPWLLEHRTCPMCKCDILKALGIEVDVEDGSVSLQVPVSNEISNSASSHEEDNRSETASSGYASVQGTDEPPLEEHVQSTNESLQLVNHEANSVAVDVIPHVDNPTFEEDETPNQETAVREIKS [Q8TEB7]
percentage of EdU-negative (MCF7; [4]): 24.4 ± 1.5% | percentage of EdU-negative (MCF7; [5]): 31.5 ± 1.1% | percentage of EdU-negative (hTERT-HMEC; [4]): 4.65 ± 0.73% | percentage of EdU-negative (hTERT-HMEC; [5]): 10.2 ± 2.7%

MAAPVPWACCAVLAAAAAVVYAQRHSPQEAPHVQYERLGSDVTLPCGTANWDAAVTWRVNGTDLAPDLLNGSQLVLHGLELGHSGLYACFHRDSWHLRHQVLLHVGLPPREPVLSCRSNTYPKGFYCSWHLPTPTYIPNTFNVTVLHGSKIMVCEKDPALKNRCHIRYMHLFSTIKYKVSISVSNALGHNATAITFDEFTIVKPDPPENVVARPVPSNPRRLEVTWQTPSTWPDPESFPLKFFLRYRPLILDQWQHVELSDGTAHTITDAYAGKEYIIQVAAKDNEIGTWSDWSVAAHATPWTEEPRHLTTEAQAAETTTSTTSSLAPPPTTKICDPGELGSGGGPSAPFLVSVPITLALAAAAATASSLLI
percentage of EdU-negative (MCF7; [3]): 25 ± 1.9% | percentage of EdU-negative (MCF7; protein concentration 0.225 µM): 27.1 ± 2.6% | percentage of EdU-negative (hTERT-HMEC; [3]): 5 ± 0.54% | percentage of EdU-negative (hTERT-HMEC; protein concentration 0.225 µM): 6.52 ± 0.21%
